Source: article PMC12187079 (Nature, 2024)

Columns and labels:
Assay in all cases: immunostaining of cells or tissue
Details in all cases: one partner purified
SARS-CoV-2 NTD-mFc = SARS-CoV-2 NTD-mFc (SARS-CoV-2 Wuhan-Hu-1 (NC_045512))
RaTG13 NTD-mFc = RaTG13 NTD-mFc (Bat coronavirus RaTG13 (MN996532))
BANAL-20-52 NTD-mFc = BANAL-20-52 NTD-mFc (Bat coronavirus BANAL-20-52/Laos/2020 …)

Measured: binding result

B1: S2L20-CVR (receptor)
VH: EVQLVESGGGVVQPGGSLRLSCAASGFTFNSYGMHWVRQAPGKGLEWVAFIRYDGGNKYYADSVKGRFTISRDNSKNTLYLQMKSLRAEDTAVYYCANLKDSRYSGSYYDYWGQGTLVTVS
VL: not shown
notes: also called HEK293T-S2L20-CVR; source: HEK293T, stably expressing (lentiviral transduction), on cells
binds: all assays above
